These results are taken from the RNAGym collection of RNA variant scans (doi:10.7554/elife.90254).

The chains are these.
B1: LINE1-mini (parent)
chain: GGCAGAGCUCAACACAGCGUGGCAAAGUGGCUGUGGCUAGACUGCC

The variants in this series derive from B1. Briefly: self-cleavage, relative activity (ratio to wild type); higher = more cleavage; in vitro, sequencing; the parent is a self-cleaving ribozyme.
For C13G C15G, the self-cleavage came out at 0.09.

In the case of C13G U38G, the self-cleavage worked out at 0.01.

As to C13G U38C, the self-cleavage came out at 0.41.

For C13G U38A, the self-cleavage was determined as 0.05.

Regarding A12U U28G, the self-cleavage was found to be 0.12.

As to A12U U28A, the self-cleavage amounted to 0.2.

For the variant A12U U28C, the self-cleavage came to 0.6.

Take C13G C31G: the self-cleavage worked out at 0.05.

For the variant C13G C31A, the self-cleavage was determined as 0.16.

With C13G C31U, the self-cleavage worked out at 0.13.

For the variant C13A U32C, the self-cleavage came out at 0.09.

Take C13A U32G: the self-cleavage was determined as 0.08.

As for C13A U32A, the self-cleavage came out at 0.11.

Take C13G A41U: the self-cleavage came out at 0.17.

As for C13G A41C, the self-cleavage amounted to 0.04.

C13G A41G: the self-cleavage turned out to be 0.09.

For C13A C37G, the self-cleavage is 0.05.

In the case of C13A C37A, the self-cleavage stood at 0.09.

Consider C13A C37U, for which the self-cleavage is 0.34.

On to C13A A39G, for which the self-cleavage amounted to 0.15.

In the case of C13A A39C, the self-cleavage stood at 0.17.

Regarding C13A A39U, the self-cleavage stood at 0.23.

C13U C31A: the self-cleavage is 0.05.

As for C13U C31U, the self-cleavage was found to be 0.12.

Turning to C13U C31G, the self-cleavage turned out to be 0.08.

As to A12U U32C, the self-cleavage is 0.07.

Turning to A12U U32A, the self-cleavage was 0.04.

Consider A12U U32G, for which the self-cleavage is 0.08.

As to C13G A25G, the self-cleavage stood at 0.11.

Turning to C13G A25U, the self-cleavage amounted to 0.44.

On to C13G A25C, for which the self-cleavage came out at 0.18.

With C13A C15U, the self-cleavage is 0.12.

Regarding C13A C15G, the self-cleavage amounted to 0.08.

For C13A C15A, the self-cleavage turned out to be 0.08.

On to C13U C45U, for which the self-cleavage came out at 0.13.

As to C13U C45A, the self-cleavage was found to be 0.05.

For C13U C45G, the self-cleavage was determined as 0.06.

As to C13A U34A, the self-cleavage was 0.07.

As to C13A U34G, the self-cleavage amounted to 0.03.

As to C13A U34C, the self-cleavage stood at 0.06.

For C13U, the self-cleavage came out at 0.17.

With C13A, the self-cleavage stood at 0.15.

On to C13G, for which the self-cleavage is 0.22.

Consider C13U G21U, for which the self-cleavage was 0.18.

C13U G21A: the self-cleavage worked out at 0.22.

C13U G21C: the self-cleavage was 0.25.

In the case of C13U G36U, the self-cleavage is 0.15.

C13U G36C: the self-cleavage stood at 0.11.

As to C13U G36A, the self-cleavage was 0.63.

As for A12U G17C, the self-cleavage was 0.25.

For the variant A12U G17U, the self-cleavage was found to be 0.09.

Regarding A12U G17A, the self-cleavage stood at 0.05.

In the case of C13G U20C, the self-cleavage came out at 0.1.

Take C13G U20G: the self-cleavage came out at 0.13.

For C13G U20A, the self-cleavage amounted to 0.13.

For C13G C23A, the self-cleavage is 0.29.

For the variant C13G C23U, the self-cleavage amounted to 0.46.

As to C13G C23G, the self-cleavage was 0.13.

On to C13A G30U, for which the self-cleavage was 0.11.

As to C13A G30C, the self-cleavage turned out to be 0.14.

With C13A G30A, the self-cleavage is 0.08.

For C13A A26C, the self-cleavage came out at 0.18.

C13A A26G: the self-cleavage stood at 0.12.

As to C13A A26U, the self-cleavage worked out at 0.11.

Regarding C13U G19U, the self-cleavage amounted to 0.23.

Regarding C13U G19C, the self-cleavage is 0.07.

For the variant C13U G19A, the self-cleavage was found to be 0.16.

Turning to C13U G22U, the self-cleavage was determined as 0.32.

For the variant C13U G22C, the self-cleavage stood at 0.1.

As for C13U G22A, the self-cleavage turned out to be 0.13.

Take C13G G36A: the self-cleavage amounted to 0.29.

Regarding C13G G36U, the self-cleavage is 0.1.

Take C13G G36C: the self-cleavage is 0.08.

Regarding C13A G27A, the self-cleavage came out at 0.18.

On to C13A G27U, for which the self-cleavage was found to be 0.08.

For C13A G27C, the self-cleavage was found to be 0.1.

With A12U G27C, the self-cleavage is 0.22.

On to A12U G27A, for which the self-cleavage amounted to 0.3.

As to A12U G27U, the self-cleavage is 0.23.

For the variant C13U G40A, the self-cleavage turned out to be 0.1.

Regarding C13U C15U, the self-cleavage was determined as 0.13.

Consider C13U C15G, for which the self-cleavage worked out at 0.08.

C13U C15A: the self-cleavage was determined as 0.08.

For the variant C13G U32G, the self-cleavage worked out at 0.05.

Regarding C13G U32A, the self-cleavage turned out to be 0.09.

Consider C13G U32C, for which the self-cleavage was found to be 0.07.

Take A12U U20A: the self-cleavage came out at 0.12.

With A12U U20C, the self-cleavage is 0.25.

On to A12U U20G, for which the self-cleavage is 0.09.

Turning to C13G C46U, the self-cleavage is 0.46.

C13G C46A: the self-cleavage came to 0.28.

Regarding C13G C46G, the self-cleavage came out at 0.19.

With C13G A16U, the self-cleavage was 0.15.

For the variant C13G A16G, the self-cleavage amounted to 0.01.

Consider C13G A16C, for which the self-cleavage came out at 0.08.

For the variant A12U G30U, the self-cleavage worked out at 0.58.

Regarding A12U G30C, the self-cleavage came to 0.46.

As to A12U G30A, the self-cleavage was found to be 0.48.

For C13G A26G, the self-cleavage stood at 0.08.

For C13G A26C, the self-cleavage turned out to be 0.27.

Consider C13G A26U, for which the self-cleavage stood at 0.19.

For the variant C13G G29U, the self-cleavage worked out at 0.33.

Regarding C13G G29A, the self-cleavage is 0.19.

In the case of C13G G29C, the self-cleavage came out at 0.11.

In the case of C13G A24C, the self-cleavage came out at 0.07.

For C13G A24G, the self-cleavage is 0.22.

Take C13G A24U: the self-cleavage stood at 0.16.

C13A G29U: the self-cleavage was found to be 0.2.

On to C13A G29A, for which the self-cleavage was 0.19.

In the case of C13A G29C, the self-cleavage amounted to 0.06.

For the variant C13G U28G, the self-cleavage was determined as 0.35.

As for C13G U28A, the self-cleavage came out at 0.28.

Turning to C13G U28C, the self-cleavage is 0.36.

A12U G29U: the self-cleavage was determined as 0.37.

Consider A12U G29C, for which the self-cleavage stood at 0.05.

With A12U G29A, the self-cleavage turned out to be 0.31.

Take C13A U43G: the self-cleavage was found to be 0.18.

For the variant C13A U43C, the self-cleavage came to 0.08.

As to C13A U43A, the self-cleavage was 0.21.

Turning to A12U G35C, the self-cleavage was found to be 0.05.

On to A12U G35A, for which the self-cleavage is 0.19.

Turning to A12U G35U, the self-cleavage worked out at 0.13.

Consider C13U G35A, for which the self-cleavage was 0.71.

C13U G35U: the self-cleavage was found to be 0.18.

For the variant C13U G35C, the self-cleavage was 0.22.

In the case of C13A U28G, the self-cleavage is 0.09.

As for C13A U28C, the self-cleavage was determined as 0.15.

On to C13A U28A, for which the self-cleavage was found to be 0.07.

On to C13G A14U, for which the self-cleavage stood at 0.09.

Regarding C13G A14G, the self-cleavage came out at 0.08.

With C13G A14C, the self-cleavage came to 0.05.

C13A G44A: the self-cleavage was found to be 0.09.

Turning to C13A G44C, the self-cleavage came to 0.07.

As to C13A G44U, the self-cleavage was determined as 0.12.

As to C13A G40A, the self-cleavage came out at 0.09.

Turning to C13A G40C, the self-cleavage is 0.07.

Regarding C13A G40U, the self-cleavage was determined as 0.09.

Regarding C13U A14G, the self-cleavage was found to be 0.17.

As for C13U A14C, the self-cleavage was found to be 0.09.

Regarding C13U A14U, the self-cleavage was 0.1.

As for C13G C45G, the self-cleavage worked out at 0.23.

Regarding C13G C45A, the self-cleavage was 0.25.

Take C13G C45U: the self-cleavage was 0.26.

In the case of C13U A26C, the self-cleavage came to 0.24.

In the case of C13U A26U, the self-cleavage was 0.15.

On to C13U A26G, for which the self-cleavage was 0.14.

For the variant C13A A25G, the self-cleavage was 0.1.

Turning to C13A A25U, the self-cleavage worked out at 0.11.

Consider C13A A25C, for which the self-cleavage amounted to 0.06.

Regarding C13A A16U, the self-cleavage is 0.09.

In the case of C13A A16C, the self-cleavage was 0.08.

Consider C13A A16G, for which the self-cleavage came out at 0.03.

In the case of A12U U43G, the self-cleavage turned out to be 0.12.

For the variant A12U U43C, the self-cleavage stood at 0.14.

In the case of A12U U43A, the self-cleavage worked out at 0.04.

Turning to A12U C46G, the self-cleavage was 0.45.

For the variant A12U C46A, the self-cleavage amounted to 0.27.

Consider A12U C46U, for which the self-cleavage is 0.27.

On to C13A C23G, for which the self-cleavage came to 0.13.

On to C13A C23A, for which the self-cleavage was 0.16.

Turning to C13A C23U, the self-cleavage stood at 0.16.

Turning to C13A G21U, the self-cleavage is 0.23.

C13A G21C: the self-cleavage was determined as 0.14.

For C13A G21A, the self-cleavage was found to be 0.23.

Consider C13A A14G, for which the self-cleavage worked out at 0.08.

For the variant C13A A14C, the self-cleavage is 0.08.

Turning to C13A A14U, the self-cleavage turned out to be 0.12.
